Earlier results on 2 substances are cited in PMC4184475.

The pKa is the pH at which an ionisable group is half protonated.

The target in data set [1] is Cys473 (UniProt position 487, ILIFHCEFSSE). Particulars: reduced thiol form (implied); otherwise not stated.
In data set [2] the target is Cys106 (UniProt position 106, LIAAICAGPTA). Particulars: reduced thiol form (implied); otherwise not stated.

With “Cdc25B phosphatase (M-phase inducer phosphatase 2) (Homo sapiens)”, in data set [1], the pKa is reported as 5.8.
With “DJ-1 (Parkinson disease protein 7) (Homo sapiens)”, the pKa in data set [2] is on record as 5.4.
